Measurements from PMC4546566 (Annals of neurology, 2015).

Experiments:
[1] = Aβ stable isotope labeling kinetics; format: in vivo, human; conditions: for FTR faster in cognitively normal amyloid positive group: in vivo
[2] = format: in vivo, human; conditions: 0.143 - 0.091

Substance | FTR faster in cognitively normal amyloid positive group [1] [%] | FTR (fractional turnover rate, irreversible loss) ([1]; compartmental model, CDR-SB = 0 (n=44), mean ± SD) [pools/h] | deposition rate constant into amyloid plaques [2] [pool/h]
Aβ38: endogenous soluble amyloid-beta isoform ending at residue 38, measured in human CSF | 22 | – | –
Aβ40: endogenous soluble amyloid-beta isoform ending at residue 40, measured in human CSF | 17 | – | –
Aβ42: endogenous soluble amyloid-beta isoform ending at residue 42, measured in human CSF | 57 | 0.104 ± 0.036 | 0.052
